Data as given in patent publication US11162124B2, “Alcohol dehydrogenase mutant and application thereof in cofactor regeneration” (Jiangnan University, priority 2018, dated 2021).
Numbering of substitutions follows the chain as printed.

Legend:
OCCCCO = assay: purified protein, by the assay type; conditions: Gly-NaOH pH 9.5, 30° C.
[1] = target: T1, alcohol dehydrogenase KpADH mutant M5 (V84I/Y127M; parent SEQ ID No. 1) (Vanderwaltozyma polyspora, UniProt A7TM80, V84I/Y127M); assay: Kinetic analysis of KpADH mutant M5 toward diol co-substrates; type: biochemical; conditions: mutant M5 relative to wild-type KpADH
T1 sequence (A7TM80 1-342 V84I/Y127M): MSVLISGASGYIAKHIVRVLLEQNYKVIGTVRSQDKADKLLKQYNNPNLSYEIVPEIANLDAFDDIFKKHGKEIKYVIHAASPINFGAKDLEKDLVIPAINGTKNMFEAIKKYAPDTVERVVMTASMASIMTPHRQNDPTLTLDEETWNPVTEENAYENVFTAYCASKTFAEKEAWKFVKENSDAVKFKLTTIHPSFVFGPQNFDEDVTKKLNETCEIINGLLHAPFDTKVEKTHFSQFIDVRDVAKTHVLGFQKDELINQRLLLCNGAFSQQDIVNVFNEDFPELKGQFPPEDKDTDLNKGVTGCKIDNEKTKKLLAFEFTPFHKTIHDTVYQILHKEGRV
Method: the M5 is obtained by mutating valine at position 84 into isoleucine and tyrosine at position 127 into methionine in alcohol dehydrogenase having an original amino acid sequence as set forth in SEQ ID No. 1.
(§1) Changes in absorbance at 340 nm are measured.
(§2) The enzyme activity is calculated using the following formula: Enzyme activity (U)=EW×V×10^3/(6220×I);
(§3) In the formula, EW is the change in absorbance at 340 nm in 1 min; V is the volume of the reaction solution in mL; 6220 is the molar extinction coefficient of NAD(P)H in L/(mol·cm); I is optical distance in cm.
(§4) One unit of activity (U) corresponds to the amount of enzyme required for the catalytic oxidation of 1 μmol NADP^+ per minute under the above conditions.
(§5) Kinetic measurement is conducted according to the enzyme activity assay, with 10 μL of alcohol substrates of different concentrations, 1 mM NADP^+, 10 μL of enzymes of appropriate concentrations, 170 μL of glycine-sodium hydroxide buffer at pH 9.5, with each sample in triplicate. […] The calculation formulas are as follows: […]
(§6) The Vmax and Km values can be calculated from the intercepts of the double reciprocal plot on the X and Y axes;
(§7) The kcat value can be further calculated according to the formula.
(§8) The activity of KpADH under different substrate concentrations and cofactor concentrations was measured, and a double reciprocal plot was made according to the reciprocals of the activity and substrate concentration. The kinetic parameters were calculated.
(§9) The activity of KpADH under different substrate concentrations and cofactor concentrations was measured, and a double reciprocal plots were made according to the reciprocals of the activity and substrate concentration. The kinetic parameters were calculated.

[2] = target: T2, alcohol dehydrogenase KpADH mutant M3 (Y127M; parent SEQ ID No. 1) (Vanderwaltozyma polyspora, UniProt A7TM80, Y127M); assay: Kinetic analysis of KpADH mutant M3 toward diol co-substrates; type: biochemical; conditions: mutant M3 relative to wild-type KpADH
T2 sequence (A7TM80 1-342 Y127M): T1 sequence (A7TM80 1-342 V84I/Y127M) with I84V
Method: M3 is obtained by mutating tyrosine at position 127 into methionine in alcohol dehydrogenase having an original amino acid sequence as set forth in SEQ ID No. 1;
as §1, §2, §3, §4, §5, §6, §7, §8, §9

[3] = target: alcohol dehydrogenase KpADH, wild type, SEQ ID No. 1 (Vanderwaltozyma polyspora, UniProt A7TM80); assay: Kinetic analysis of wild-type KpADH toward diol co-substrates; type: biochemical; conditions: 1 mM NADP+, Gly-NaOH pH 9.5, 30° C.
Method: as §1, §2, §3
One unit of activity (U) corresponds to the amount of enzyme required for the catalytic oxidation of 1 μmol NADP^+ per minute under the above conditions. […]
as §6, §7, §8, §9

**Q.** Which results are given for “alcohol dehydrogenase KpADH mutant M3 (Y127M; parent SEQ ID No. 1) (Vanderwaltozyma polyspora DSM 70294; Y127M)”?
**A.** Km (OCCCCO; other: mutant M3, 1 mM NADP+): 12.1 ± 0.9 mM; kcat (OCCCCO; other: mutant M3, 1 mM NADP+): 0.28 s⁻¹; kcat/Km (OCCCCO; other: mutant M3, 1 mM NADP+): 23.2 M⁻¹ s⁻¹

**Q.** With “alcohol dehydrogenase KpADH mutant M4 (V84I/Y127C; parent SEQ ID No. 1) (Vanderwaltozyma polyspora DSM 70294; V84I/Y127C)” as the molecule, how does the Km (OCCCCO; other: mutant M4, 1 mM NADP+) read?
**A.** 30.4 ± 1.3 mM

**Q.** And the kcat (OCCCCO; other: mutant M4, 1 mM NADP+)?
**A.** 0.652 s⁻¹

**Q.** What about the kcat/Km (OCCCCO; other: mutant M4, 1 mM NADP+) of the same molecule?
**A.** 21.4 M⁻¹ s⁻¹

**Q.** What does the source list for `OCCCCCO` [1,5-pentanediol]?
**A.** kcat/Km value, times that of wild-type KpADH [1]: 3.14 times; catalytic efficiency kcat/Km, times that of wild-type KpADH [2]: 4.36 times

**Q.** With “alcohol dehydrogenase KpADH mutant M2 (Y127C; parent SEQ ID No. 1) (Vanderwaltozyma polyspora DSM 70294; Y127C)” as the molecule, how does the Km (OCCCCO; other: mutant M2, 1 mM NADP+) read?
**A.** 38.1 ± 1.9 mM

**Q.** What about the kcat (OCCCCO; other: mutant M2, 1 mM NADP+) of the same molecule?
**A.** 0.463 s⁻¹

**Q.** And the kcat/Km (OCCCCO; other: mutant M2, 1 mM NADP+)?
**A.** 12.2 M⁻¹ s⁻¹

**Q.** What does the source list for “alcohol dehydrogenase KpADH mutant M5 (V84I/Y127M; parent SEQ ID No. 1) (Vanderwaltozyma polyspora DSM 70294; V84I/Y127M)”?
**A.** Km (OCCCCO; other: mutant M5, 1 mM NADP+): 11.3 ± 0.8 mM; kcat (OCCCCO; other: mutant M5, 1 mM NADP+): 0.378 s⁻¹; kcat/Km (OCCCCO; other: mutant M5, 1 mM NADP+): 33.5 M⁻¹ s⁻¹

**Q.** How did the “kcat/Km value, times that of wild-type KpADH” value [1] turn out when `OCCCCCCO` [1,6-hexanediol] was run?
**A.** 5.3 times

**Q.** And the Km [3]?
**A.** 18.5 ± 1.5 mM

**Q.** And the kcat [3]?
**A.** 0.698 ± 0.015 s⁻¹

**Q.** What about the “catalytic efficiency kcat/Km, times that of wild-type KpADH” value [2] of the same molecule?
**A.** 2.69 times
